The text below walks through data of patent publication US20140322218A1 (Amgen, published 2014).

For assay [1], the target named is T1, huCDH19(44-772), Flag-tagged, on 293T cells (human, UniProt Q9H159 44-772).
T1 construct: Expressed with native leader (1-43) followed by a Flag tag; leader left out; also called Hu EC1-5
Put plainly: FACS, transfected 293T. On the technique in general: In flow cytometry, cells or beads pass a laser one at a time.
Description: (§1) The experiment included assaying the anti-CDH19 antibodies against mouse Cadherin19 to determine suitability for binning on these human/mouse chimeras.

In assay [2] the target is T2, muCDH19(44-139)::huCDH19(142-364)::muCDH19(363-770), Flag-tagged, on 293T cells (human/mouse chimera).
T2 construct: also called Hu EC2-3; C137847
Put plainly: FACS, transfected 293T.
Description: as §1

For assay [3], the target named is T3, muCDH19(44-247)::huCDH19(250-364)::muCDH19(363-770), Flag-tagged, on 293T cells (human/mouse chimera).
T3 construct: also called Hu EC3; C137911
Description: FACS, transfected 293T.
Description: as §1

A further assay concerns the target T4, Cyno Cadherin-19 (cynomolgus monkey (Macaca fascicularis), UniProt Q9H159 44-772 (human entry)).
T4 construct: also called cyno CDH19; cynomologous CDH-19
T4 chain: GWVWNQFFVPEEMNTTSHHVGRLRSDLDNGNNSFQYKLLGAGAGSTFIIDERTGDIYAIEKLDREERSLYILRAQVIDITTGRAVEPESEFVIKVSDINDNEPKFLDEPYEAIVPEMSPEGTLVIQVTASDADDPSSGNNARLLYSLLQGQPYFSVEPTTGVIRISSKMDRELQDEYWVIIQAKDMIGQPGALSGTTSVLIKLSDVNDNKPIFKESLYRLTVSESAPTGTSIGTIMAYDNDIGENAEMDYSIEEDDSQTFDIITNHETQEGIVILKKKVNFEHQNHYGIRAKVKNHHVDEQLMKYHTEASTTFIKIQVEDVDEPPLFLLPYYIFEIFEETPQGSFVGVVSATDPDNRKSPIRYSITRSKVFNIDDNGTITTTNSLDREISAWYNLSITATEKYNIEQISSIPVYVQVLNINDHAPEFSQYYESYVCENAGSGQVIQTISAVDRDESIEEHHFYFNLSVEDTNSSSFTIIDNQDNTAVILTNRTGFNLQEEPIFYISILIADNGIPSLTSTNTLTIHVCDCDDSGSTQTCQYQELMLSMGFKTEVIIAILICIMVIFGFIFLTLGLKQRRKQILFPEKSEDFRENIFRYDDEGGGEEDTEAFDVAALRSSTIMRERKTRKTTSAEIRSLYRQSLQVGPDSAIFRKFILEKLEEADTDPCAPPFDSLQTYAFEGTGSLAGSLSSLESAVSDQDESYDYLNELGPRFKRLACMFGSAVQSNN
Description: FACS, recombinant cyno CDH19.

For the next assay, the target named is T5, Human Cadherin-19 (human, UniProt Q9H159 44-772).
T5 construct: Residues 1-43 are named as the native leader in the construct designations and are left out; also called human CDH19; huCDH19
Put plainly: FACS, endogenous CDH19 on CHL-1/Colo699.

In assay [4] the target is T6, huCDH19(44-249)::muCDH19(248-770), Flag-tagged, on 293T cells (human/mouse chimera).
T6 construct: also called Hu EC1-2; C137896
Description: FACS, transfected 293T.
Description: as §1

The target in assay [5] is T7, huCDH19(44-141)::muCDH19(140-770), Flag-tagged, on 293T cells (human/mouse chimera).
T7 construct: also called Hu EC1
Description: FACS, transfected 293T.
Description: as §1

The target in assay [6] is T8, huCDH19(1-43)::FLAG::hu(44-141)::ckCDH19(142-776), on 293T cells (human/chicken chimera).
T8 construct: Entry holds leader (1-43), Flag tag and CDH19 part; leader left out; also called Hu EC1 (chicken backbone)
Put plainly: FACS, transfected 293T.
Description: (§2) The following binding assay was completed in presence of 2 mM CaCl2. […] Cells were then washed one time and the amount of cell associated Alexa647-labelled Ab was quantitated by flow cytometry. The experiments included mock transfected controls.

For assay [7], the target named is T9, ckCDH19(1-43)::FLAG::ckCDH19(44-141)::huCDH19(142-249)::ckCDH19(250-776), on 293T cells (human/chicken chimera).
T9 construct: Entry holds leader (1-43), Flag tag and CDH19 part; leader left out; also called Hu EC2 (chicken backbone)
T9 chain: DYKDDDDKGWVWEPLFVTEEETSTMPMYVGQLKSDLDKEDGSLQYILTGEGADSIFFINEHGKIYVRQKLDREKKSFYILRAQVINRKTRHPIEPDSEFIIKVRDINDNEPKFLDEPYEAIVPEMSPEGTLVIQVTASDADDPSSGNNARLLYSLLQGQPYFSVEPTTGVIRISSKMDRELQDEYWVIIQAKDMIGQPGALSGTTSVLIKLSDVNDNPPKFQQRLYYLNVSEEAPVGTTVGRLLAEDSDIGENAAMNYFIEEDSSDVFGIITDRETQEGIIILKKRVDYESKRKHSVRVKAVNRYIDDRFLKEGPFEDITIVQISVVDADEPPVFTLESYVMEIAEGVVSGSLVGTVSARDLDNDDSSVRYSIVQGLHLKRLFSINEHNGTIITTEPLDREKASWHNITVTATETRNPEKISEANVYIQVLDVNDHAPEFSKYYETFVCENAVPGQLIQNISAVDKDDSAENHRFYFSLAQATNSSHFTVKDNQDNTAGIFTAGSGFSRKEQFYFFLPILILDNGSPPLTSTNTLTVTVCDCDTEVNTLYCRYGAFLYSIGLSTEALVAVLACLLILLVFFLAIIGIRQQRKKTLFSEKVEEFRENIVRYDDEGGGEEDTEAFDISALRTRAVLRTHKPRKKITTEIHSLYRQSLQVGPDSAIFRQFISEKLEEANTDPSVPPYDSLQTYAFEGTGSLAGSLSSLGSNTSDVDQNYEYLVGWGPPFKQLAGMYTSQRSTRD
Description: FACS, transfected 293T.
Description: as §2

Assay [8] deals with T10, (1-43)::FLAG::ckCDH19(44-468)::huCDH19(464-772), on 293T cells (human/chicken chimera).
T10 construct: Entry holds leader (1-43), Flag tag and CDH19 part; leader left out; also called Hu EC5 (chicken backbone)
T10 chain: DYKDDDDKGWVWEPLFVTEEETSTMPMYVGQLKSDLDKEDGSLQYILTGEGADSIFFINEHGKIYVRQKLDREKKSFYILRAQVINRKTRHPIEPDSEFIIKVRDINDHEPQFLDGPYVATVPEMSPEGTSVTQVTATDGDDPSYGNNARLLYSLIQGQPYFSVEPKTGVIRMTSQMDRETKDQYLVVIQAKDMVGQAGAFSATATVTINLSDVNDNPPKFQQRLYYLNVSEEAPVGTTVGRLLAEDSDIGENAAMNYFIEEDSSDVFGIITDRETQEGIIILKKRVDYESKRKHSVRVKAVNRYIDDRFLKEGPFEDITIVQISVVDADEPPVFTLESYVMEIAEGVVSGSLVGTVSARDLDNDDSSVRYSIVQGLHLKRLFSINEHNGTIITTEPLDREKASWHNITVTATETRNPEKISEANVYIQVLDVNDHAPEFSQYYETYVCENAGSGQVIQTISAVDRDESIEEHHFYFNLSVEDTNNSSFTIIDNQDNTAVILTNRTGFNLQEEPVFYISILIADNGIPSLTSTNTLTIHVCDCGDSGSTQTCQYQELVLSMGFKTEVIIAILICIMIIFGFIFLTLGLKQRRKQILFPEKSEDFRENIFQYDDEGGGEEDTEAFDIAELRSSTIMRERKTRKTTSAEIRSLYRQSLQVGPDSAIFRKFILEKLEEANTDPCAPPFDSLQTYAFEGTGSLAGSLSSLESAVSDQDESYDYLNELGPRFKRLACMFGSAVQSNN
Put plainly: FACS, transfected 293T.
Description: as §2

For assay [9], the target named is T11, ckCDH19(1-43)::FLAG::ckCDH19(44-776), on 293T cells (chicken).
T11 construct: Entry holds leader (1-43), Flag tag and CDH19 part; leader left out; also called Ck EC1-5
T11 chain: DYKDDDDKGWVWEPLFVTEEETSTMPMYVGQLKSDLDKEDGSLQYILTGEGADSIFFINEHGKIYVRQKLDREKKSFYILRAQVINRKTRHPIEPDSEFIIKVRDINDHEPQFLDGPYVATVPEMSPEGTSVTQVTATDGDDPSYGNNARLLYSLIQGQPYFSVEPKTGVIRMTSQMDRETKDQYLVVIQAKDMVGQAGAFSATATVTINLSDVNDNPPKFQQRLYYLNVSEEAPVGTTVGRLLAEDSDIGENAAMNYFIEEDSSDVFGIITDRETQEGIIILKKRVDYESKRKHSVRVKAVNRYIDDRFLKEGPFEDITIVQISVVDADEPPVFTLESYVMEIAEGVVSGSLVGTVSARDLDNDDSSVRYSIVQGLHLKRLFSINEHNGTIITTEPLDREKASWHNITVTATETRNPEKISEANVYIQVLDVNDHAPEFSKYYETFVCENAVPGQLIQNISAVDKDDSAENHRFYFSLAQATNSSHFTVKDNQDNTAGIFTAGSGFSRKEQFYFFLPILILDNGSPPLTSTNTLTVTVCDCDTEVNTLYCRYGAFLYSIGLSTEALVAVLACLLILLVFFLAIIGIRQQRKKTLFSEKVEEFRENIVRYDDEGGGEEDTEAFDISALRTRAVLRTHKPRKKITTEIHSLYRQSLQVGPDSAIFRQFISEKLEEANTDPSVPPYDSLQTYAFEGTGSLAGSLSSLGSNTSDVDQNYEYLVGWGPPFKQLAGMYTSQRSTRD
Put plainly: FACS, transfected 293T.
Description: as §2

For assay [10], the target named is T12, muCDH19(44-770), Flag-tagged, on 293T cells (mouse).
T12 construct: also called Mu EC1-5
T12 chain: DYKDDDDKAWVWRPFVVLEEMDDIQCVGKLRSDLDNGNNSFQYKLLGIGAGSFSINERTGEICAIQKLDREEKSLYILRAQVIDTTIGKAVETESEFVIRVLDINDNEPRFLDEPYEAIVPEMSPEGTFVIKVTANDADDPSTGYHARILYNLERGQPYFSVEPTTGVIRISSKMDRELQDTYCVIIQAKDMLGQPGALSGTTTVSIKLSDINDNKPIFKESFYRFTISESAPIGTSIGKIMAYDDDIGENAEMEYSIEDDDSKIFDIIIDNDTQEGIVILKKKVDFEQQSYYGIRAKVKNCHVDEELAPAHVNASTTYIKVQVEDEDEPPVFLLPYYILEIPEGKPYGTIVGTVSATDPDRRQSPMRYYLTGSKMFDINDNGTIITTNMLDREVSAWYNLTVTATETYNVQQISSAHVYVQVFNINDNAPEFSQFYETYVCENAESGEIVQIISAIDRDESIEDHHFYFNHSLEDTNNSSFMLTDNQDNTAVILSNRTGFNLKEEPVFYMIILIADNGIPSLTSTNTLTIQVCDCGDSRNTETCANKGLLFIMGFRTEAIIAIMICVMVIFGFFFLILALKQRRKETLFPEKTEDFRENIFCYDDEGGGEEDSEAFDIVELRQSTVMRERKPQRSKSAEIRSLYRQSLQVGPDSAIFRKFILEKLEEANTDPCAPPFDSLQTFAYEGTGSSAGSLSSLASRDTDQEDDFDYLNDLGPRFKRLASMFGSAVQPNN
Description: FACS, transfected 293T.

Description for Human Cadherin-19: FACS binding assays were performed to evaluate the binding of the anti-Cadherin-19 receptor specific antibodies to endogenous Cadherin-19 receptor expressed on the CHL-1 tumor cell lines.
FACs assays were performed by incubating hybridoma supernatants with 10,000 to 25,000 cells in PBS/2% Fetal bovine serum/2 mM Calcium Chloride at 4° C. for one hour followed by two washes with PBS/2% Fetal bovine serum/2 mM Calcium Chloride. Cells were then treated with florochrome-labeled secondary antibodies at 4° C. followed by one wash. The cells were resuspended in 50 μl of PBS/2% FBS and antibody binding was analyzed using a FACSCalibur™ instrument.

B1: hu anti-<huCDH19> 4B10 (1-471)(R17G) VH::huIgG1z / 4B10 (1-236)(H45Q,A90T) VL::huKLC (Ab ID 14054) (antibody, V domains shown)
VH: QVQLVESGGGVVQPGGSLRLSCAASGFTFSSYDMHWVRQAPGKGLEWVAVISYDGTNEYYADSVKGRFTISRDTSKNTLYLQMNSLRAEDTAVYYCARERYFDWSFDYWGQGTLVSVSS
VL: EIVLTQSPGTLSLSPGERATLSCRASQSVSNTYLAWYQQRPGQAPRLLIYGASSRATGIPDRFSGSGSGTDFTLTISSLEPEDFAVYYCQQYSNSWTFGQGTKVEIKR
notes: Engineered variant of 4B10
As for B1, the binding result in [1], in assay [2] and in assay [3] was “binds” throughout.

B2: hu anti-<huCDH19> 25F8.1 VH::huIgG1z / 25F8.1 VL::huLLC-C2 (Ab ID 13880) (antibody, V domains shown)
VH: QVQLVQSGAEVKKPGASVKVSCKASGYTFTSYYIHWVRQAPGQGLEWMGIINPSGGSTRYAQKFQGRVTMTRDTSTSTVFMELSSLRSEDTAVYYCARGGIQLWLHFDYWGQGTLVTVSS
VL: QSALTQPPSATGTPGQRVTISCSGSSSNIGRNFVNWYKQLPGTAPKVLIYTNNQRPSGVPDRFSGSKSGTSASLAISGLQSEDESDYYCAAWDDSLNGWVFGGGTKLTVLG
Turning to B2, the binding result (with Cyno Cadherin-19; in the assay with Human Cadherin-19; in assay [1]; in assay [4]; in assay [5]) was “binds” in each case.

B3: hu anti-<huCDH19> 26F12.1 VH::huIgG1z / 26F12.1 VL::huLLC-C2 (Ab ID 13881) (antibody, V domains shown)
VH: QVQLVQSGAEVKKPGASVKVSCKASRYTFTNYYMSWVRQAPGQGLEWMGIINPSGGDSTYAQKFQGRLTMTGDTSTSTVYMELSSLRSEDTAVYYCARGGIQLWLHFDYWGQGTLVTVSS
VL: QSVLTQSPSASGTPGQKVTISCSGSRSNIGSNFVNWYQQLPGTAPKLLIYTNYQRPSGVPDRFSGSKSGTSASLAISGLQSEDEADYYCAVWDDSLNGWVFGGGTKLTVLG
notes: also called 27B3
For B3, the binding result in assay [6] was “binds”; in [7], “no binding (tested: 5 ug/ml)”; in assay [8] it was “no binding (tested: 5 ug/ml)”; in assay [9] it was “no binding (tested: 5 ug/ml)”; in assay [10], “no binding (tested: 5 ug/ml)”.

B4: hu anti-<huCDH19> 4F7 VH::huIgG1z / 4F7 VL::huLLC-C1 (Ab ID 13591) (antibody, V domains shown)
VH: QVQLQESGPGLVKPSETLSLTCTVSGGSISSYSWSWIRQPPGKGLEWIGYIYYSGSTNYNPSLKSRVTISLDTSKNQFSLKLSSVTAADTAVYYCARNWAFHFDYWGQGTLVTVSS
VL: QSVLTQPPSVSGAPGQRVTISCTGSSSNIGTGYDVHWYQQLPGTAPKLLIHGNSNRPSGVPDRFSGSKSGTSASLAITGLQAEDEADYYCQSYDSSLSGWVFGGGTRLTVLG
For the molecule B4, the binding result in the assay with Cyno Cadherin-19 and with Human Cadherin-19 was “binds” throughout.
